Reference: patent publication US20170305994A1 (Novo Nordisk, published 2017)
Changes are numbered by the printed parent chain. In names and notes the source's numbering stands.

T1: human DR3 (full length, on cells) (human, UniProt Q93038 25-417)
T1 sequence: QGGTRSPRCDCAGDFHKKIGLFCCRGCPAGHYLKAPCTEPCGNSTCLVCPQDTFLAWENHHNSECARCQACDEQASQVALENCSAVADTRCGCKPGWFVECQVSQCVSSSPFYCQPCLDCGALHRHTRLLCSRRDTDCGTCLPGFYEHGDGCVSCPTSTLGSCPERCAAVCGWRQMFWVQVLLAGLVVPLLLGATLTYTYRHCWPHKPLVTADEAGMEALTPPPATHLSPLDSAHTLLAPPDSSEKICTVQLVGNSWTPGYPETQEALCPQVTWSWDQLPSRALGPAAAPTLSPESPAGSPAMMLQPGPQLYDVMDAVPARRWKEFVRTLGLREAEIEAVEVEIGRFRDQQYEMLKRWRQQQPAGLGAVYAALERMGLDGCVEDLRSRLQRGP

T2: human DR3 with the death domain deleted (ΔM339-P417 of SEQ ID NO:1), expressed on CHOK1SV cells (human, UniProt Q93038 25-338)
T2 construct: also called truncated DR3; hDR3 expressing CHO cells
T2 sequence: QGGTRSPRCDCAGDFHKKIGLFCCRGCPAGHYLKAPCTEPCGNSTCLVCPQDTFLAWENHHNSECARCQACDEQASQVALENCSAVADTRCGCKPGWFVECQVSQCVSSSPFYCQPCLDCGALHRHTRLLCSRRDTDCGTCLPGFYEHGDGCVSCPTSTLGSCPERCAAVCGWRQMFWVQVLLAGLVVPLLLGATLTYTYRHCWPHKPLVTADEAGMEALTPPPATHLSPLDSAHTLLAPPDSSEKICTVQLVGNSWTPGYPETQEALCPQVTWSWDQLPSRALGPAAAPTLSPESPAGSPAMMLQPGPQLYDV

B1: 0169 (humanized IgG1 Fab of 0072; HC T28A S49A Y91; LC Q3A T5A S60A M4L) (Fab, V domains shown)
VH: EVQLVESGGGLVQPGGSLRLSCAASGFTFSNYDMSWVRQAAGKGLEWVSAFSSDGYTFYPGAVKGRFTISRENAKNSLYLQMNSLRAGDTAVYYCARHADYANYPVMDYWGQGTLVTVSS
VL: DIALAQSPSSLSASVGDRVTITCRASKSVSTSGYSYMHWYQQKPGKAPKLLIYLASNLEAGVPSRFSGSGSGTDFTLTISSLQPEDFATYYCQHSRELPLTFGGGTKVEIK
B2: 0219 (humanized Fab of 27F44, IgG1, S49A HC) (Fab, V domains shown)
VH: B1 VH with A41T, S49A, A62S
VL: B1 VL with A3Q, L4M, A5T, A60S
notes: Human IgG1 constant part
B3: 0124 (chimeric Fab of 28F26, human IgG4 constant domain, hinge Cys->Ser) (Fab, V domains shown)
VH: EVKVVESGGGLVKPGGSLKLSCAASGFVFSSYDMSWVRQIPEKRLEWVAAISSGDYYTYYPDSVKGRFTISRDDARNTLYLQMSSLRSEDTALYYCARHRGGNYPQYAMDYWGQGTSVTVSS
VL: DILLTQSPASFAVSLGQRATISCRASKSVSTSGYNYIHWYQQKPGQPPKLLIYLTSNLESGVPARFSGSGSGTDFTLNIHPVEEEDAATYYCQHSRELPFTFGSGTKLEIKR
notes: murine variable domains, human IgG4 constant domain (IgG4-Ser)
B4: 0130 (recombinant murine Fab of 45F36) (Fab, V domains shown)
VH: EVQLVESGGGLVKPGGSLKLSCAASGFTFSSYAMSWVRQSPDKRLEWVAEISSGDTYTYYPDTVTGRFTISRDNAKKTLYLEMSGLRSEDTAMYYCARDREAYYGQQYVMDYWGQGTSVTVSS
VL: DIVLTQSPASLAVSLGLSVTISCRASESIEYSGTSFLQWYQQKPGQPPRLLIYGSSTVESGVPARFSGSGSGTDFSLNIHPVEEDDSAMYFCQQSRRLPWTFGGGTKLEIKR
notes: murine Fab; also called 00130
B5: 0143 (chimeric Fab of 44F434, human IgG4 constant domain, hinge Cys->Ser) (Fab, V domains shown)
VH: EVQLVESGGDLVMPGGSLKLSCAASGFIFSSYGLSWIRQTPDKRLEWVATISGGDSYTYYPDSVKGRFTISSDNAKNTLYLQMTSLKSEDTAMYYCATQREIYYGTYYALDHWGQGTSVTVSS
VL: DIQMTQTTSSLSASLGDRVTISCRASQDINNYLNWYQQKPDGTVKLLIYYTSRLQSGVPSRFSGSGSGTDYSLTISSLEQDDIATYFCQQGSPLPWTFGGGTKLEIKR
notes: IgG4-Ser, chimeric
B6: 0122 (chimeric Fab of 27F16, human IgG4 constant domain, hinge Cys->Ser) (Fab, V domains shown)
VH: EVQLVESGGDFVKPGGSLKLSCAASGFTFNNYGMSWVRQTPDKRLEWVAAISSGVTYTYYPDTVKGRFTISRDNAKNTLYLHMSSLKSEDTAMYYCGRHDDYGNHFDYWGQGTTLTVSS
VL: DIVMTQSPSSLAMSLGQRVTMNCKSSQSLLNSHNQKNYLAWYQQKPGQSPKLLVYFASSRESGVPDRFIGSGSGTDFTLTISSVQAEDLADYFCQQHYSTPFTFGSGTKLEIKR
notes: murine variable domains, human IgG4 constant domain (IgG4-Ser), human kappa
B7: 0118 (chimeric Fab of 27F16, human IgG1 constant domain) (Fab, V domains shown)
VH: B6 VH
VL: B6 VL

Columns and labels:
[1] = target: T1, human DR3 (full length, on cells); assay: cell-based or functional assay
DR3 (CRD1)-Fc = target: T3, DR3 (CRD1)-Fc (human); assay: SPR Biacore T200, DR3(CRD1)-Fc captured by anti-human IgG, Fab as analyte, 25 C, 1:1 model, mean of 3 surface densities
T3 construct: Amino acids 25-71 of DR3 fused to the Fc domain of human IgG4; purified to exclude oligomers (mainly dimeric)
Experimental: The experiments were performed on a Biacore T200 instrument (GE Healthcare) and analysed with the Biacore T200 Evaluation Software. Anti human IgG antibodies (human IgG capture kit from GE Healthcare) were immobilized on all flow cells of a CM5 sensor chip according to manufacturer's instructions. HBS-EP (GE Healthcare) with 0.1% human serum albumin was used as running buffer. DR3(CRD1)-Fc (SEQ ID NO:2) was captured on the chip at low surface densities between 14 and 45 RU. Fab fragments were diluted to concentrations between 90 and 0.037 nM and subsequently injected for 360 s. […] Binding curves were measured at 25° C. with a flow rate between 30 and 60 μL/min.
Regeneration was performed with 3 M […] for 2×20 s. The raw data were double referenced by subtraction of the signals from a reference flow cell without captured ligand and a buffer blank. Determination of the kinetic parameters was performed by fitting with a 1:1 binding model using the Biacore T200 Evaluation Software (GE Healthcare). Average values obtained from 3 different surface densities of DR3(CRD1)-Fc (SEQ ID NO:2) were calculated and are stated in table 14

[2] = target: T1, human DR3 (full length, on cells); assay: cell-based or functional assay; remark: listed apart in the source
[3] = target: T2, human DR3 with the death domain deleted …; assay: flow cytometry competition: Fab vs TL1A on hDR3-expressing CHO cells
[4] = target: T1, human DR3 (full length, on cells); assay: cell-based or functional assay; remark: listed apart in the source
[5] = target: T1, human DR3 (full length, on cells); assay: cell-based or functional assay; remark: listed apart in the source
[6] = target: T1, human DR3 (full length, on cells); assay: cell-based or functional assay; remark: listed apart in the source

T3 sequence (chain, as listed by the source limits assumed): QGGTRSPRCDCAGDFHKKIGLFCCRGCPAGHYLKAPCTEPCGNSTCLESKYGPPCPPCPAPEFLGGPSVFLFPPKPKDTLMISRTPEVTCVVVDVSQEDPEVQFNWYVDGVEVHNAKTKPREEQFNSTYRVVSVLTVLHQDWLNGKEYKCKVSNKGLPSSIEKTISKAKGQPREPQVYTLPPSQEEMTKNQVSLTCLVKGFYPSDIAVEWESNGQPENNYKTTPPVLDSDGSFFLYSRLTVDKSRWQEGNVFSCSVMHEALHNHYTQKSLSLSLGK

Binder | Kd (DR3 (CRD1)-Fc) | koff (DR3 (CRD1)-Fc) | kon (DR3 (CRD1)-Fc) | IC50 at 40 ng/ml TL1A, I5 reporter cells [2] | IC50 [3] | max percentage inhibition [3] | IC50, TNFalpha inhibition, TL1A-activated CD4+ T cells, donor 1 [5] | IC50, TNFalpha inhibition, TL1A-activated CD4+ T cells, donor 2 [5] | max % inhibition of TNFalpha, donor 1 [5] | max % inhibition of TNFalpha, donor 2 [5] | further results
B1 | – | – | – | – | – | – | – | – | – | – | IFN-γ, TL1A-costimulated lymphocytes, Fab 0.003 µg/mL [1]: 121 ng/mL; IFN-γ, TL1A-costimulated lymphocytes, Fab 0.01 µg/mL [1]: 138 ng/mL; IFN-γ, TL1A-costimulated lymphocytes, Fab 0.03 µg/mL [1]: 81 ng/mL; IFN-γ, TL1A-costimulated lymphocytes, Fab 0.1 µg/mL [1]: 58 ng/mL; IFN-γ, TL1A-costimulated lymphocytes, Fab 0.3 µg/mL [1]: 31 ng/mL; IFN-γ, TL1A-costimulated lymphocytes, Fab 1.0 µg/mL [1]: 55 ng/mL
B2 | 0.00955 nM | 3.06e-05 s⁻¹ | 3.2e+06 M⁻¹ s⁻¹ | – | – | – | – | – | – | – | –
B3 | 0.267 nM | 0.000201 s⁻¹ | 752000 M⁻¹ s⁻¹ | 2.4 nM | 1.3 nM | 79% | 1.11 nM | 1.21 nM | 52.3% | 41.3% | GM-CSF, fold downregulation, +TL1A + anti DR3 Fab [4]: 7.9 fold; IFNγ, fold downregulation, +TL1A + anti DR3 Fab [4]: 1.1 fold; IL-6, fold downregulation, +TL1A + anti DR3 Fab [4]: 13.3 fold; TNFα, fold downregulation, +TL1A + anti DR3 Fab [4]: 5 fold; IC50, TNFalpha inhibition, average (n 4) [5]: 1.33 nM
B4 | 0.12 nM | 0.000208 s⁻¹ | 1.74e+06 M⁻¹ s⁻¹ | 1.4 nM | 1.34 nM | 73% | 0.539 nM | 1.77 nM | 84.4% | 78% | IC50, TNFalpha inhibition, average (n 5) [5]: 0.642 nM
B5 | 0.00147 nM | 5.1e-06 s⁻¹ | 3.49e+06 M⁻¹ s⁻¹ | 0.29 nM | 0.12 nM | 76% | 0.148 nM | 0.074 nM | 76.7% | 66% | IC50, TNFalpha inhibition, average (n 5) [5]: 0.125 nM
B6 | – | – | – | – | 5.11 nM | 33% | – | – | 3.9% | 10% | –
B7 | – | – | – | – | – | – | – | – | – | – | IFN-γ, TL1A-costimulated RA SF cells, Fab 0.003 µg/mL [6]: 2310 pg/mL; IFN-γ, TL1A-costimulated RA SF cells, Fab 0.01 µg/mL [6]: 2280 pg/mL; IFN-γ, TL1A-costimulated RA SF cells, Fab 0.03 µg/mL [6]: 2080 pg/mL; IFN-γ, TL1A-costimulated RA SF cells, Fab 0.1 µg/mL [6]: 2100 pg/mL; IFN-γ, TL1A-costimulated RA SF cells, Fab 0.3 µg/mL [6]: 2120 pg/mL; IFN-γ, TL1A-costimulated RA SF cells, Fab 1 µg/mL [6]: 2230 pg/mL; IFN-γ, TL1A-costimulated lymphocytes, Fab 0.003 µg/mL [1]: 132 ng/mL; IFN-γ, TL1A-costimulated lymphocytes, Fab 0.01 µg/mL [1]: 134 ng/mL; IFN-γ, TL1A-costimulated lymphocytes, Fab 0.03 µg/mL [1]: 158 ng/mL; IFN-γ, TL1A-costimulated lymphocytes, Fab 0.1 µg/mL [1]: 151 ng/mL; IFN-γ, TL1A-costimulated lymphocytes, Fab 0.3 µg/mL [1]: 124 ng/mL; IFN-γ, TL1A-costimulated lymphocytes, Fab 1.0 µg/mL [1]: 132 ng/mL
